Measurements as given in US20050095613.

Key:
DQMD peptide substrate = biological target: T1, DQMD peptide substrate
T1 chain: DQMD

WEHD peptide substrate = biological target: T2, WEHD peptide substrate
T2 chain: WEHD

DEVD peptide substrate = biological target: T3, DEVD peptide substrate
T3 chain: DEVD

LEHD peptide substrate = biological target: T4, LEHD peptide substrate
T4 chain: LEHD

B1: human CARD-13 (protein)
chain: MADKKPSKEDPVNMVKLLARNVLDGILDDLMENNVLNTEELRNLGKGLNFMVNNAGNLVDNITEKAQMAGKILKDRLLSHPKQLSLEYQRESEDQESEESSASSSSSTESEEENEESKDEERAASAHSMAVPPTGLPRWWQAASKMAADHFQDGGEPRVLCPGVPGLTDSKERNLGPCAPLEIQGAQPSGRLKLCPHAHFRELKTKRADEIYPVMEKEGRTRLALIICNKEFHYLLNRNGSELDLLGMQDLLETLGYSVVIEENLTAQEMETALRQFAARPEHQSSDSTSLVFMSHGILNGICGTKHWDQEPDVLHDDTIFEIFNNRNCRSLRDKPKVIIMQACRGSGAGIVWFTTDSGKASAETHGQLLQSSICNDAVTKAHVEKDFIAFKSSTPHNVSWRHEISGSVFISQIIYYFKEYSWSHHLEEIFRKVQRSFETPNVVTQLPTIERLSMTRYFYLFPGN
cleavage of peptide substrate (caspase activity) (DQMD peptide substrate): it did not cleave DEVD peptide substrate or DQMD peptide substrate | cleavage of peptide substrate (caspase activity) (WEHD peptide substrate): This purified CARD-13 cleaved WEHD peptide substrates, as does caspase-1 | cleavage of peptide substrate (caspase activity) (DEVD peptide substrate): it did not cleave DEVD peptide substrate or DQMD peptide substrate | cleavage of peptide substrate (caspase activity) (LEHD peptide substrate): It also had some activity against LEHD peptide substrate
